This is an account of results in US20130174289A1, “Na+/Mg2+ Exchanger” (FBN - Leibnitz-Institut fur Nutztierbiologie, priority 2010, published 2013).

This test deals with T1, SLC41A1 (Homo sapiens, UniProt Q8IVJ1).
T1 construct: split-ubiquitin half (bait fusion); expressed in transfected cells
In words: Split-ubiquitin screen for SLC41A1 complex-forming partners. Conditions: for occurrence: frequency of occurrence = number of clones that revealed interaction with SLC41A1. It is filed as binding. The text has this:
These SLC41A1 complex-forming partners were screened out by the split-ubiquitin method, which is well known in the art and are listed in detail in Table 1. The ubiquitin-based split protein sensor (USPS) is the method that makes it possible to detect and monitor protein-protein interactions as a function of time, at the natural sites of these interactions in a living cell. Details on the method can be found in Johnsson and Varshaysky, 1994.
In order to shorten the table, multiple entries were deleted and only the frequency of occurrence (Occurrence) is indicated as a number. The singletons listed in Table 2 are the weakest partners. They are organized from the strongest to the weakest.
In the above tables 1 and 2 underlined names indicate highly connected proteins, found in the majority of DUALmembrane SU-YTH screens. Highly connected proteins include chaperones, stress-induced endoplasmatic reticulum proteins, components of the translocon machinery and proteins involved in membrane protein sorting and transport.

T1 sequence (Q8IVJ1 whole entry, the tested form may be a part): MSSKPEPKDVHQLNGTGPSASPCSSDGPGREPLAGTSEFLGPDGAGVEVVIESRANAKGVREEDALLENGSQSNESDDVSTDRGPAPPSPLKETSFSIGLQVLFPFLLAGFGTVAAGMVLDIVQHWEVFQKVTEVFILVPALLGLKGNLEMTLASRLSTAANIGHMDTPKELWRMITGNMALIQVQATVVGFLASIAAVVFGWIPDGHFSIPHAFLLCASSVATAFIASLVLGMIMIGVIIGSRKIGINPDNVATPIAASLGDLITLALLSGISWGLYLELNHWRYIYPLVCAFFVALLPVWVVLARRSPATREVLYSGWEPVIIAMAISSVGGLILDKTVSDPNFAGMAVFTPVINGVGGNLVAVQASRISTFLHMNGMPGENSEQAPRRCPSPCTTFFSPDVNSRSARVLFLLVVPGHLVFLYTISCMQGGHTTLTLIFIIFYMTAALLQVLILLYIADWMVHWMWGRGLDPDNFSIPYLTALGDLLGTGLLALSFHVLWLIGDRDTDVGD

B1: 3-beta-hydroxysteroid-Delta(8), Delta(7)-isomerase OS = Rattus norvegicus: SLC41A1 complex-forming partner from split-ubiquitin screen; GN = Ebp (protein, UniProt Q9JJ46 2-230, looked up)
3-beta-hydroxysteroid-Delta(8) …: TTNMLPLHPYWPRHLRLDNFVPNDLPTWHILVGLFSFSGVLIVITWLLSSRVSVVPLGTGRRLALCWFAVCTFIHLVIEGWFSFYHEILLEDQAFLSQLWKEYSKGDSRYILSDGFIVCMESVTACLWGPLSLWVVIAFLRHQPFRFVLQLVVSVGQIYGDVLYFLTELRDGFQHGELGHPLYFWFYFVIMNAIWLVIPGILVFDAIKHLTNAQSMLDNKVMKIKSKHN
Molecule B1 yielded an occurrence of 1.

B2: B-cell receptor-associated protein 31 OS = Homo sapiens: SLC41A1 complex-forming partner from split-ubiquitin screen; GN = BCAP31 (protein)
chain: MSLQWTAVATFLYAEVFVVLLLCIPFISPKRWQKIFKSRLVELLVSYGNTFFVVLIVILVLLVIDAVREIRKYDDVTEKVNLQNNPGAMEHFHMKLFRAQRNLYIAGFSLLLSFLLRRLVTLISQQATLLASNEAFKKQAESASEAAKKYMEENDQLKKGAAVDGGKLDVGNAEVKLEEENRSLKADLQKLKDELASTKQKLEKAENQVLAMRKQSEGLTKEYDRLLEEHAKLQAAVDGPMDKKEE
Take B2: the “clones identified with interaction with SLC41A1” value (split-ubiquitin screening) was “Ten”.

B3: Protein YIPF6 OS = Homo sapiens: SLC41A1 complex-forming partner from split-ubiquitin screen; GN = YIPF6 (protein, UniProt Q96EC8 2-236, looked up)
Protein YIPF6: AEAEESPGDPGTASPRPLFAGLSDISISQDIPVEGEITIPMRSRIREFDSSTLNESVRNTIMRDLKAVGKKFMHVLYPRKSNTLLRDWDLWGPLILCVTLALMLQRDSADSEKDGGPQFAEVFVIVWFGAVTITLNSKLLGGNISFFQSLCVLGYCILPLTVAMLICRLVLLADPGPVNFMVRLFVVIVMFAWSIVASTAFLADSQPPNRRALAVYPVFLFYFVISWMILTFTPQ
B3 displayed an occurrence of 2.
